Measurements as given in the DeepSol protein solubility set.

assay: soluble on expression in E. coli; label from the status in PepcDB or PDB records

Sequence	soluble on expression in E. coli
MKNTTLYTYRDYFVIRGGKPLTGKVKISGAKNAALPIMFATILTEEPCTITNVPDLLDVRNTLLLLRELGAELEFLNNTVFINPSINSFITNQEIIRRMRASVLSLGPLLGRFGRAVVGLPGGCSIGARPIDQHLKFFKEAGADVEVREGYVYVNLKEKRRVHFKFDLVTVTGTENALLYLASVPEESILENIALEPEVMDLIEVLKKMGAHVKVEGRSAYVKGSENLKGFTHSVIPDRIEAGTFMVGAVLTDGEILLENARINHLRAVVEKLKLIGGEVVEENGNLRVFRKESLRACDIETQVYPGFPTDMQAQFMALLSVAKGKSRIKENIFEHRFHHAQELNRLGANITVRGNTAYVEGVERLYGSEVYSTDLRASASLVLAGLVAQGETVVRDVYHLDRGYEKLEEKLKKLGADIERVSEL	soluble
MKPILALLSLLALPVMAAEPTLYGRYENIKVLEIGQTFKAKMDTGALTASLSAKDIELFQRDGDDWVRFRLATKGADDKVYEHKVSRISKIKGRAEGDDEDDEGINPAKRPVVDLELCLGNKKRTVEVNLVDRSHFNFPLLIGAKALREFGAAINPARRYTADEPDC	not soluble
MKPKLAQWKELLAARHKKENDEEKEEEKPDGRPVTDVPYADVWREYGAKPYWFAGDYCLIRETVYPLDYQHGRYRLGALYEVHERWQEAPFSHPLSCRGFAVRDLFFFDTETMGLSSGAGNIMFLLGHARILGDFVTIRQHLLPYPGAEVALYQSFLSDVDYTTLVTYNGKAFDWPRLKTRHALVRNMVPKLPAFGHFDLYHAARRLWKDKLDSLRLSEVERHILHVERGDDVPGFLAPMMYKEFLQTPHPDRLMPVLRHNERDVLSLIALYIHLSVQLLEADRLADPKEQLAAARWFEAVGETAAARGVYEEASGKGAKEAQAAKWQLSLLYRKEKRYEEAALLWRDLLIHGNGYWKAKAGLELAKVYEHYFRDAAEAHRYAVMAYEAWRSLARMSRQHSEKEEAEWRRRLARLERKKNG	not soluble
MKPKTRLYYAERLEPVLAWLAARPDADADLHRLAELACLSPYYFHRVYRALLGETVHATVQRMRLARASVALAQGKGSLRQVADRAGYASEAAFSRAFSAQYGLPPGRYRAKRSSPFNPEELRMYPLTMEDFPGLSLAILAHQGDYQEIGNTFDRLALLAAIQDLVRDGMQPPPRYIGVYYDDPAQVARDALRSRAGVSLPPGTAAPAPFEPLDIPAMRCAVLEYTGPYSEIEAPYNWLFSQWLPASGQEPGDFPMFEEYLNDPKTTPAAQLKTRIYLPLA	not soluble
MKPMTQEPSTLYAKLLGETASITWTELQPFFAKGALLWVELPLDLIEVAEAVAENDAARVSAWLADGQVGKVSETKALELVETDPQLWAVVVAPWVLIQNRANV	not soluble
MKPRPQSDAVDNEGPTPLSKGRRHLAMRLDDAWLGFQTRLAIRRGRVETVIPYTGYGSTSWVRVLARIVRSDPRDAAGHTNPLQESMRGWRNFTSAPVAHASVQVTIDGTVHDVVADRGGVVDARIPVALDAGWHTITLRSGESETVEAPVEIVADDAVFGVVSDIDDTVMVTALPRPFLAAWNTFVLNEHARTPTPGMAVLYERIARTAPSAPVLYLSTGAWNVAPTLSRFLSRNLYPAGPKLLTDWGPTPDRWFRSGQEHKRTSLERLAEEFPNIKWLLVGDDGQHDEAIYSEFAQRHPASVRAIAIRQLSAGEAVLAGGRSKSGGQPTPGVPWIYAPDGAGMSAQLEELGIIRLEHHHHHH	not soluble
MKPVPTYVQDKDESTLMFSVCSLVRDQAKYDRLLESFERFGFTPDKAEFLAADNREGNQFHGFSWHKQMLPRCKGRYVIFCHEDVELVDRGYDDLVAAIEALEEADPKWLVAGVAGSPWRPLNHSVTAQALHISDVFGNDRRRGNVPCRVESLDECFLLMRRLKPVLNSYDMQGFHYYGADLCLQAEFLGGRAYAIDFHLHHYGRAIADENFHRLRQEMAQKYRRWFPGRILHCVTGRVALGGGWYEAR	soluble
MKQEVEKWRPFKHPDGDVRDLSFLDAHQVIYVQHHEDKEPLEYRFWVTYSLHCFTKDYEHQTNEEKLSLMYHAPKESRPFCQHRYNLARTHLKRTILALPESNVIHAGYGSYAVIEVDLDGGDKAFYFVVFRAFSEIFHHCLKLIEK	not soluble
MKQFLITGGTGMVGSQLVNKLKNRDVHITILTRSDKQSDDPKISYVNWSKDGWMSQVPDIDVVVNLAGATLNKRWTPSYKQLIMTSRIQSTQSLVDLFSQREHKPEVLFNASAMGYYPPSLYHTYTEKYQTHPFDFLSDVVYQWERFAKRFESFGTRVVLGRFSMILSNDGGALQTMKLPYKFFVGGKLGSGFQWYSWIHINDLVRAILFTIDNPNAKGPFNMAAPIAERQNLFGYTLARVMHRPHETWVPSFLMRLALGEMSTVVLDTQKVLPNKLDALGFTFNYSNLKIAFEDLIDALEHHHHHH	not soluble
MKQLTVEDAKQIELEILDYIDTLCKKHNINYIINYGTLIGAVRHEGFIPWDDDIDLSMPREDYQRFINIFQKEKSKYKLLSLETDKNYFNNFIKITDSTTKIIDTRNTKTYESGIFIDIFPIDRFDDPKVIDTCYKLESFKLLSFSKHKNIVYKDSLLKDWIRTAFWLLLRPVSPRYFANKIEKEIQKYSRENGQYMAFIPSKFKEKEVFPSGTFDKTIDLPFENLSLPAPEKFDTILTQFYGLEHHHHHH	not soluble
MKQRPKEYYEQLEELQAVDFTLVELTLYLDTHPTDYQAIQQFNQLAQKRKQLKKQFEAAYGPLEQFGHSYSNYPWNWDDTPWPWQV	not soluble
MKQSKIIVAGIGPGSEQDITPAVLAAVREADVVVGYKYYFRFIRDFVRPDAECIDTGMKRERARAEQAFEYAEQGKTVCVISSGDAGIYGMTPLIYEMKRERQSNVEIIALPGISAFQKAASLLGAPIGHDFCVISLSDLMTPWERIERRILAAAQADFVTAVYNPKSDGRYWQIYRLREIFLREGRSPETPVGYVRQAGREEQEIHITTLAAFDPETVDMFTVVLIGNSQTYTFNQNIITPRGYYRETRSEATGIGQDIMIRSFRTIETELKNRDIPLDRKWALLHAIHTTADFEMERLLYTDPNAVASLYDAIRTGNLRTIVTDVTMAASGIRKGALQRLGVEVKCYLNDERVAEMATSKGITRTQAGIRLAVEEHPDALFVFGNAPTALMELCDLIRKEKAQPAGIVAAPVGFVHVEESKHMTKPFTHIPKLIVEGRKGGSNLAATLVNAILCYPDAEQLRPGRDV	soluble
MKQTVLLLFTALFLSGCSVASADDSVPRFTEEGKYIGSADPHTIAVSLNGEETMIQVPKDKRDECESLPDQTHVLVKYTKKDNGTLQLEDIQLRKTS	soluble
MKRAAFYTLGCKVNQYETEAISEMFEKAGYKIVDFEDEADVYVINTCTVTNLSDRKSRQMIRRAKRNNENSIVIVIGCYAQTAPEEVSKIEGVNLVVGTKDRSRILEYLKELETSGGRRNYVGDIMKTREFEELGVNVYKERTRAFIKIQEGCNQFCTYCIIPYARGPVRSRSEENILKEVSGLAHSGYKEVVLTGIHVASYGKDIKNTSLIDIIRKVHEIEGIERIRLGSIEPTTVTEEFVRAIKGMEKLCPQFHISLQSGCDSTLKRMNRKYTTKEYLRSVELLRENLKDVAVTTDVMVGFPGETDEEFNETCRFVEKVLFARMHVFKYSRRKGTPAASYPDQVAPQKKEERSRILIELASRMTLEYNKSFTGRVLPVLFEQEVKGKEGFMEGLTPNYIRVECKGDKDIEGQILNVLLREAKDDYIVGEIVN	soluble
MKRAFIMVLDSFGIGATEDAERFGDVGADTLGHIAEACAKGEADNGRKGPLNLPNLTRLGLAKAHEGSTGFIPAGMDGNAEVIGAYAWAHEMSSGKDTPSGHWEIAGVPVLFEWGYFSDHENSFPQELLDKLVERANLPGYLGNCHSSGTVILDQLGEEHMKTGKPIFYTSADSVFQIACHEETFGLDKLYELCEIAREELTNGGYNIGRVIARPFIGDKAGNFQRTGNRHDLAVEPPAPTVLQKLVDEKHGQVVSVGKIADIYANCGITKKVKATGLDALFDATIKEMKEAGDNTIVFTNFVDFDSSWGHRRDVAGYAAGLELFDRRLPELMSLLRDDDILILTADHGCDPTWTGTDHTREHIPVLVYGPKVKPGSLGHRETFADIGQTLAKYFGTSDMEYGKAMF	not soluble
